Assay results published in article PMC8844851 (The Journal of Biological Chemistry, 2022).

Target: T1, C-terminally FLAG-tagged Cdc123 (S. cerevisiae, UniProt Q05791 1-360)
T1 construct: Cdc123 of S. cerevisiae; also called Cdc123^FLAG; source: S. cerevisiae, in lysate; not shown: FLAG, C-terminal, kept
T1 sequence (looked up): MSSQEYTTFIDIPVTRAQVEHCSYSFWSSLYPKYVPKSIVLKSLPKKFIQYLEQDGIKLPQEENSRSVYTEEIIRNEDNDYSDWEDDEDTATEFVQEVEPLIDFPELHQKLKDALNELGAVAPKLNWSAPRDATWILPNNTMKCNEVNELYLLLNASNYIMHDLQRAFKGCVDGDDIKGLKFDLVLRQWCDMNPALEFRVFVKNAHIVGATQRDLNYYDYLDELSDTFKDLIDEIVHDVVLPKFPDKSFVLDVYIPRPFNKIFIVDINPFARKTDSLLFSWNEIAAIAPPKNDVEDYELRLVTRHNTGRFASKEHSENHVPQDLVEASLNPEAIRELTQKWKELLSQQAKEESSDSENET
Experiment: co-IP; Cdc123-FLAG precipitated with anti-FLAG beads from yeast extract, 4 °C, 2 h; subunit signal in IP normalised to whole cell extract, Gcd11 set to 100% (n = 3); also SUI2/SUI2 against sui2Δ/SUI2 diploid strains (n = 4)
Settings: partners not purified

B1: yeast eIF2γ (Gcd11) (natural protein, UniProt P32481 1-527, looked up)
chain: MSDLQDQEPSIIINGNLEPVGEPDIVEETEVVAQETQETQDADKPKKKVAFTGLEEDGETEEEKRKREFEEGGGLPEQPLNPDFSKLNPLSAEIINRQATINIGTIGHVAHGKSTVVRAISGVQTVRFKDELERNITIKLGYANAKIYKCQEPTCPEPDCYRSFKSDKEISPKCQRPGCPGRYKLVRHVSFVDCPGHDILMSTMLSGAAVMDAALLLIAGNESCPQPQTSEHLAAIEIMKLKHVIILQNKVDLMREESALEHQKSILKFIRGTIADGAPIVPISAQLKYNIDAVNEFIVKTIPVPPRDFMISPRLIVIRSFDVNKPGAEIEDLKGGVAGGSILNGVFKLGDEIEIRPGIVTKDDKGKIQCKPIFSNIVSLFAEQNDLKFAVPGGLIGVGTKVDPTLCRADRLVGQVVGAKGHLPNIYTDIEINYFLLRRLLGVKTDGQKQAKVRKLEPNEVLMVNIGSTATGARVVAVKADMARLQLTSPACTEINEKIALSRRIEKHWRLIGWATIKKGTTLEPIA
notes: Gcd11, eIF2 gamma subunit of S. cerevisiae, untagged endogenous protein detected with antiserum; source: endogenous, S. cerevisiae (W303 derivatives) lysate
- fold increase of coprecipitation in the sui2Δ/SUI2 strain over SUI2/SUI2: 1.3 fold
